Assay results published in article PMC3632125 (Nucleic Acids Research, 2013).

Assays:
Csm2;Psy3 [1] = biological target: T1, Csm2;Psy3 (Saccharomyces cerevisiae;Saccharomyces …, UniProt P40465;Q12318 1-213;1-242, |); assay: fluorescence anisotropy
T1 sequence 1: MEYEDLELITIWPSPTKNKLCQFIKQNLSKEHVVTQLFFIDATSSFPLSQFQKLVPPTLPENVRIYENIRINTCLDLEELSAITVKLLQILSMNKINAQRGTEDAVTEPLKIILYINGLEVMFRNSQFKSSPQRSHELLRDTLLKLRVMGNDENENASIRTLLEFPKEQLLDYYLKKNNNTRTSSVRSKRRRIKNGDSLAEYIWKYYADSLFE
T1 sequence 2: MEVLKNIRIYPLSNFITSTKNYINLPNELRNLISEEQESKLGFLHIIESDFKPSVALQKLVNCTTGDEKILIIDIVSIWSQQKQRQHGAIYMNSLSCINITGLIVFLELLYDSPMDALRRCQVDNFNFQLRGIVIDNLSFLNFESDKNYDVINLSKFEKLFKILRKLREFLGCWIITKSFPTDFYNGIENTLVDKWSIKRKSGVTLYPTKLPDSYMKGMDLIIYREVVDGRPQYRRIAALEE

Csm2;Psy3 [2] = biological target: T1, Csm2;Psy3; assay: competition
Psy3 = biological target: T2, Psy3 (S. cerevisiae, UniProt Q12318 1-242); assay: SEC
T2 sequence: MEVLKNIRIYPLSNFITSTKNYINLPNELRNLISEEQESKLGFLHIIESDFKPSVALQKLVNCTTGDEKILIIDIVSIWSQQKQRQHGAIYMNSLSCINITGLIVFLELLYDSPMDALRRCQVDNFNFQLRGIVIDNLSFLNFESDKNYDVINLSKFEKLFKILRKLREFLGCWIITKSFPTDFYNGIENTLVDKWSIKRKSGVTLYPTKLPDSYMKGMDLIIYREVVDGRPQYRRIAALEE

B1: fluorescein-labelled fork (mixed)
DNA 1: TTTTTTTTTTTTTTTTTTTTCTTGACAAGCTTGCGCACT
DNA 2: AGTGCGCAAGCTTGTCAAGGCACTTTTTTTTTTTTTTTT
- Kd (Csm2;Psy3 [1]): 361 ± 10.9 nM

B2: 3'-overhang (mixed)
DNA 1: CTGCGAGCTCGAATTCACTGGAGTGACCTC
DNA 2: GAGGTCACTCCAGTGAATTCGAGCTCGCAGTGTCTAGGTCGTGACTTTGA
- binding result (Csm2;Psy3 [2]): binds

B3: Csm2 (natural protein)
chain: MEYEDLELITIWPSPTKNKLCQFIKQNLSKEHVVTQLFFIDATSSFPLSQFQKLVPPTLPENVRIYENIRINTCLDLEELSAITVKLLQILSMNKINAQRGTEDAVTEPLKIILYINGLEVMFRNSQFKSSPQRSHELLRDTLLKLRVMGNDENENASIRTLLEFPKEQLLDYYLKKNNNTRTSSVRSKRRRIKNGDSLAEYIWKYYADSLFE
- binding result (Psy3): binds
